Results on three molecules are retold here after PMC4479991.

For data set [1], the target named is T1, zif268 (EGR1 DNA-binding domain), cleaved (UniProt P08046 333-421). Put plainly: EMSA; up to 1 M KCl; binding saturates at about 1:200 DNA:protein; EMSA: binding on ice, at least 1 h, native PAGE 8% (oligos) or 3.5% (1 kb), salt up to 1 M KCl; nanopore: 1 M KCl, 30 min incubation at 200:1 protein:DNA; pH no. On the technique in general: A gel shift assay detects complexes by their altered migration in electrophoresis.

For data set [2], the target named is T2, zif268_GST (uncleaved fusion) (UniProt P08046 333-421). Nature of the data set: EMSA; 1:300 DNA:protein; EMSA: binding on ice, at least 1 h, native PAGE 8% (oligos) or 3.5% (1 kb), salt up to 1 M KCl; nanopore: 1 M KCl, 30 min incubation at 200:1 protein:DNA; pH no.
Data set [3] deals with T1, zif268 (EGR1 DNA-binding domain), …. The data set is described as above.
The target of data set [4] is T2, zif268_GST (uncleaved fusion). Nature of the data set: EMSA; EMSA: binding on ice, at least 1 h, native PAGE 8% (oligos) or 3.5% (1 kb), salt up to 1 M KCl; nanopore: 1 M KCl, 30 min incubation at 200:1 protein:DNA; pH no.
Data set [5] addresses T1, zif268 (EGR1 DNA-binding domain), …. The data set is described as above.

B1: Atto-647 50 bp oligo, 1 site (dsDNA)
DNA 1: AGTCTGTTACGCTGGCCTCTGCGTGGGCGAATTCGCATGCGCAACCCCAC
DNA 2: GTGGGGTTGCGCATGCGAATTCGCCCACGCAGAGGCCAGCGTAACAGACT
B1: the binding result in data set [1] is listed as “binds”.

B2: (+) 50 bp oligo, 2 sites separated by 6 bp (dsDNA)
DNA 1: CAGGCGTGGGCGCTGCAGGCGTGGGCGCC
DNA 2: TCGAGGCGCCCACGCCTGCAGCGCCCACGCCTGGTAC
Turning to B2, the binding result in data set [2] and in data set [3] was “binds” throughout.

B3: (-) 50 bp oligo, no site (dsDNA)
DNA 1: CAGTATGCAAATGACTGCAGTATGCAAATGACC
DNA 2: TCGAGGTCATTTGCATACTGCAGTCATTTGCATACTGGTAC
As for B3, the binding result in data set [4] and in data set [5] was “no binding” throughout.
